Assay results from publication PMC2897852 (PLoS ONE, 2010).

B1: purified FtsZ (M. tuberculosis) as used in the solid-phase binding and polymerization assays (natural protein)
chain: MTPPHNYLAVIKVVGIGGGGVNAVNRMIEQGLKGVEFIAINTDAQALLMSDADVKLDVGRDSTRGLGAGADPEVGRKAAEDAKDEIEELLRGADMVFVTAGEGGGTGTGGAPVVASIARKLGALTVGVVTRPFSFEGKRRSNQAENGIAALRESCDTLIVIPNDRLLQMGDAAVSLMDAFRSADEVLLNGVQGITDLITTPGLINVDFADVKGIMSGAGTALMGIGSARGEGRSLKAAEIAINSPLLEASMEGAQGVLMSIAGGSDLGLFEINEAASLVQDAAHPDANIIFGTVIDDSLGDEVRVTVIAAGFDVSGPGRKPVMGETGGAHRIESAKAGKLTSTLFEPVDAVSVPLHTNGATLSIGGDDDDVDVPPFMRR
notes: also called FtsZTB
B2: His-ClpX (M. tuberculosis ClpX, pRD21) (natural protein)
chain: not shown
notes: also called his-clpXTB; recombinant His-ClpX fusion protein

Legend:
[1] = molecular target: B2; assay: ELISA; details: both partners purified
[2] = molecular target: the molecule itself; assay: SEC; purified ClpX on a Superdex 200 10/300 GL column; data not shown

Row | Binder | binding result [1] | stoichiometry N [2]
1 | B1 | binds | –
2 | B2 | – | 6
